Here are results for two substances from PMC3196576.

Assay [1] deals with GroEL CP376-RW (E. coli) (UniProt P0A6F5). Briefly: negative-stain electron microscopy; GroEL alone, 0.25 mg/ml in 50 mM triethanolamine pH 7.5, 20 mM MgCl2, 50 mM KCl; 1% uranyl acetate.
Assay [2] has the same target. Briefly: SEC; gel filtration profiles observed during purification (AKTA FPLC, 4°C); data not shown. On the technique in general: In gel filtration, larger molecules generally elute earlier.
Assay [3] deals with GroEL CP376 (E. coli) (UniProt P0A6F5). The assay is described as above.

What is called stoichiometry N is a count of units in the complex or per binding partner. In the case of “GroEL CP376-RW (from UniProt P0A6F5 376-548; P0A6F5 2-374)”, the stoichiometry N in assay [1] and in assay [2] was 14 in each case. Regarding “GroEL CP376 (from UniProt P0A6F5 376-548; P0A6F5 2-374)”, in assay [3], the stoichiometry N was 14.
